Data published in patent US6403765B1, “Truncated Apaf-1 and methods of use thereof” (Thomas Jefferson University, priority 1998, dated 2002).

Experiments:
[1] = tested on: chimeric procaspase-3 with an N-terminal procaspase-9 prodomain; assay: Processing of chimeric procaspase-3 by Apaf-530-bound caspase-9; type: biochemical; conditions: Apaf-530 in the absence of procaspase-9, FIG. 15
Experimental: (§1) To achieve this, a chimeric procaspase-3 with an N-terminal caspase-9 prodomain was constructed. Caspase-9 prodomain in the chimera may allow recruitment of the chimeric procaspase-3 to the Apaf-530-caspase-9 complex. […] In FIG. 15, ^35S-labeled chimeric procaspase-3 with an N-terminal procaspase-9 prodomain (lanes 1-4) or WT procaspase-3 (lanes 5-8) were incubated with buffer or Apaf-530 in the presence or absence of a non-radiolabeled WT procaspase-9 and analyzed by SDS-PAGE followed by autoradiography.

[2] = target: T1, T7-tagged Apaf-530 (Homo sapiens, UniProt O14727); assay: Co-immunoprecipitation of Flag-tagged Apaf-1 variants with T7-tagged Apaf-530 in 293 cells; type: binding; conditions: anti-Flag immunoprecipitation, anti-T7 blot, 36 hours, FIG. 11
T1 construct: expressed in transfected cells; host or cells: 293 cells
T1 sequence (O14727 1-530 isoform O14727-3): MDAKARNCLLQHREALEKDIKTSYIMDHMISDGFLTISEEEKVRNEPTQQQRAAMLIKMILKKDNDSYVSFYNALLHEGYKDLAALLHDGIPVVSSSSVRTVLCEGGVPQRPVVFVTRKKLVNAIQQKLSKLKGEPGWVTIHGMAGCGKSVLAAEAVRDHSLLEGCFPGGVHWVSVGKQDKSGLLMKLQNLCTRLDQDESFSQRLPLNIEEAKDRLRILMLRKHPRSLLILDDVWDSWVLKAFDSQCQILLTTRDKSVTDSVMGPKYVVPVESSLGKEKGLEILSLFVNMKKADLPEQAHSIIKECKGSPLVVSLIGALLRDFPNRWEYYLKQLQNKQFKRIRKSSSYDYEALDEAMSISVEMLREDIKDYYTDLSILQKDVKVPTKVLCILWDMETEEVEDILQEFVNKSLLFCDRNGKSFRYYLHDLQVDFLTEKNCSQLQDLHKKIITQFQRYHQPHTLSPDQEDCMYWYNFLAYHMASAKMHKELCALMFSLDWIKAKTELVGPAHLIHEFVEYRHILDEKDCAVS
Experimental: The ability of APAF-530 to oligomerize pro-caspase-9 was tested. Co-transfection experiments in 293 cells were performed with T7-tagged Apaf-530 and different Flag-tagged Apaf-1 variants, and cell lysates were prepared and immunoprecipitated with an anti-Flag antibody. The immunoprecipitates were analyzed by Western blotting with an anti-T7 antibody.
In FIG. 11, 293 cells were co-transfected with constructs encoding T7-tagged Apaf-530 and an empty vector (lane 1) or constructs encoding Flag-tagged Apaf-1 (lane 2), Flag-tagged Apaf-530 (lane 3), Flag-tagged Apaf-530ΔCARD (lane 4) or Flag-tagged Apaf-97 (lane 5). After 36 hours, extracts were prepared and immunoprecipitated with a monoclonal antibody to the Flag epitope. The immunoprecipitates (upper panel) were analyzed by SDS-PAGE and immunoblotted with a horseradish peroxides-conjugated T7 antibody. The corresponding cellular extracts were also analyzed by SDS-PAGE and immunoblotted with a horseradish peroxides-conjugated T7 antibody (middle panel) or an anti-Flag antibody (lower panel).

[3] = target: T2, procaspase-3 (Homo sapiens, UniProt P42574); assay: Processing of procaspase-3 by Apaf-530-bound caspase-9; type: biochemical; conditions: Apaf-530 with non-radiolabeled WT procaspase-9, FIG. 15
T2 construct: made in house; host or cells: coupled in vitro transcription/translation in rabbit reticulocyte lysate (TNT Kit, Promega)
T2 sequence (P42574 1-277): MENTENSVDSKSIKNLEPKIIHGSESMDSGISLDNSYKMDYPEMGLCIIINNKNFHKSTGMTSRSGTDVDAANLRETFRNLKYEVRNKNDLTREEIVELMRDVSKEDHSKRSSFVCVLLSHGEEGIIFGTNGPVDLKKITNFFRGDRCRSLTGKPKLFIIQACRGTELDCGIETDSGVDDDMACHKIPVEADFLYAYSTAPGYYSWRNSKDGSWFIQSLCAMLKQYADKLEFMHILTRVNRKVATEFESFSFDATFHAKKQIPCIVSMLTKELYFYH
Experimental: as §1

processing of chimeric procaspase-3 [1]: no processing was observed | co-immunoprecipitation with T7-Apaf-530 [2]: co-immunoprecipitated
B1: Apaf-530: truncated Apaf-1 (residues 1-530) lacking its WD-40 repeats, recombinant (protein, UniProt O14727 1-530, looked up, fragment)
chain: MDAKARNCLLQHREALEKDIKTSYIMDHMISDGFLTISEEEKVRNEPTQQQRAAMLIKMILKKDNDSYVSFYNALLHEGYKDLAALLHDGIPVVSSSSGKDSVSGITSYVRTVLCEGGVPQRPVVFVTRKKLVNAIQQKLSKLKGEPGWVTIHGMAGCGKSVLAAEAVRDHSLLEGCFPGGVHWVSVGKQDKSGLLMKLQNLCTRLDQDESFSQRLPLNIEEAKDRLRILMLRKHPRSLLILDDVWDSWVLKAFDSQCQILLTTRDKSVTDSVMGPKYVVPVESSLGKEKGLEILSLFVNMKKADLPEQAHSIIKECKGSPLVVSLIGALLRDFPNRWEYYLKQLQNKQFKRIRKSSSYDYEALDEAMSISVEMLREDIKDYYTDLSILQKDVKVPTKVLCILWDMETEEVEDILQEFVNKSLLFCDRNGKSFRYYLHDLQVDFLTEKNCSQLQDLHKKIITQFQRYHQPHTLSPDQEDCMYWYNFLAYHMASAKMHKELCALMFSLDWIKAKTELVGPAHLIHEFVEYR
processing of WT procaspase-3 [3]: no processing of procaspase-3 was observed
